Consider 1 substance from patent US8926955B2, “Synthesis of polymer conjugates of indolocarbazole compounds” (priority 2008, dated 2015).

For data set [1] the following is noted: rat, in vivo.
Method: (§8) The purpose of this study was to evaluate the toxicity of the test item in rats after daily dermal administration (6 hours exposure) over a period of 13 weeks and to investigate possible recovery from any potential treatment-related effects over a period of 4 consecutive weeks. The toxicokinetic profile was also evaluated.
(§9) Three groups, each of 10 male and 10 female Sprague Dawley rats (cf. Table 1: male numbered with even numbers, female numbered with uneven numbers) received the test item by dermal application at dosages of 0.5, 2.5 and 5 mg/kg/day for 13 consecutive weeks (Table 1: group numbers 2-4). A fourth similarly constituted group received the vehicle alone (purified water) and acted as a control (Table 1: group number 1). Five additional animals for each sex were included in the high and control groups (Table 1: group numbers 4 and 1, respectively) for recovery assessment. In addition, 3 satellite groups for toxicokinetics, including 9 males and 9 females (Table 2: group numbers 5-8, respectively), and 1 control group, including 3 males and 3 females (Table 2: group number 5), were treated as the main groups for toxicokinetic evaluations.
A short description of data set [2]: Toxicokinetics (plasma levels) in 13 week dermal rat study.
Method: as §8, §9
The next data set has as its system Sprague Dawley rats. Briefly: Acute intravenous toxicity study in rats. Type of data set: in vivo, rat. The protocol:
The acute toxicity of the conjugate of Example 3 was investigated after intravenous administration (10 ml/kg in physiological saline) of a single dose to Sprague Dawley rats followed by a 14-day observation period.
A single group of 5 male and 5 female animals was dosed at 2000 mg/kg. Animals were dosed with the formulated test item at the selected level, just after its preparation, by injection into the tail vein using a hypodermic needle attached to a syringe of suitable capacity, at a dose volume of 10 ml/kg body weight. Throughout the study, all animals were checked twice daily.
Animals were examined for signs of reaction to treatment on dosing, approximately 30 min, 2 and 4 hours after dosing on day 1, then daily for a total of 14 days. Each animal was weighed on the day of allocation to study, on the day of dosing (day 1) and on days 2, 8 and 15. All animals were killed at the end of the observation period and subjected to necropsy examination.

For data set [3], the system named is Salmonella typhimurium TA1537, TA98 and TA100. Briefly: Photomutagenicity assay in bacteria (reverse mutation, UV light). Type of data set: cell-based. To be noted: up to 5000 μg/plate. The source says: (§1) The test item was examined for photomutagenic activity by assaying for reverse mutation to prototrophy in the prokaryotic organisms, Salmonella typhimurium and Escherichia coli, after exposure to light.
(§2) The three S. typhimurium tester strains, TA1537, TA98 and TA100, and the E. coli tester strain, WP2, were used. The bacteria, co-plated with the test item in soft-agar, were irradiated with various doses of UV light.
(§3) The procedures adopted were developed by Ames et al., 1975 and revised by Maron and Ames, 1983.
(§4) The test item was used as a solution in sterile distilled water.
(§5) The test item was assayed in the toxicity test at a maximum dose level of 5000 μg/plate and at four lower concentrations spaced at approximately half-log intervals: 1580, 500, 158 and 50.0 μg/plate. Two widely-spaced UV doses were selected for each bacterial tester strain on the basis of the maximum tolerated dose.
(§6) Two independent experiments were performed using the plate incorporation method.
(§7) The test item was assayed at a maximum dose level of 5000 μg/plate and at four lower dose levels spaced by two-fold dilutions: 2500, 1250, 625 and 313 μg/plate. The prepared plates were exposed to the following UVA and UVB doses (Table 5): […]

The test system of the next data set is Escherichia coli WP2. The data set is described as above. To be noted: up to 5000 μg/plate. It counts as cell-based.
Excerpt: as §1, §2, §3, §4, §5, §6, §7

“Also recorded” adds a separate entry of the source.

Take “oxazolidindionic conjugate of K252a with PEG (1892 MW) [test item]”: the “plasma levels / incidence of absorption” value in data set [1] is on record as “a lower incidence of absorption was detected”. Moreover, in data set [2] (daily dermal administration over 13 weeks), the accumulation result is “no accumulation has occurred”. Further, in data set [2] (rat plasma sample analyses), the “absorption through the dermal route” value is given as “only minimally absorbed”. Moreover, in the data set with Sprague Dawley rats (2000 mg/kg i.v.), the “internal abnormalities at necropsy” value is reported as “No internal abnormalities were detected”. Besides, the clinical signs entry with Sprague Dawley rats (2000 mg/kg i.v., all animals on the day of dosing) is “reduced activity and piloerection”. Besides, the “changes in body weight” value in the data set with Sprague Dawley rats (2000 mg/kg i.v., end of study) is “within the expected range”. Further, the “abnormalities at the injection site” value with Sprague Dawley rats (2000 mg/kg i.v., tail vein) was “No abnormalities were observed at the injection site”. In the data set on Sprague Dawley rats (2000 mg/kg single intravenous dose, 14-day observation), the mortality entry was “No mortality occurred”. In the data set on Sprague Dawley rats (injected into the tail vein at 2000 mg/kg), the local tolerance entry was “locally tolerated”. The toxic effect result with Sprague Dawley rats (single intravenous administration at 2000 mg/kg body weight) is “no toxic effect”. Also, the “reverse mutation (revertant colonies) in the presence of UV light” value in data set [3] (UVA) is reported as “did not induce two-fold increases in the number of revertant colonies; also recorded: does not induce reverse mutation”; with Escherichia coli WP2 (UVA and UVB) it was “did not induce two-fold increases in the number of revertant colonies; also recorded: does not induce reverse mutation”. The toxicity result (in data set [3] (any UV irradiation dose); in the data set with Escherichia coli WP2 (any UV irradiation dose)) was “No relevant toxicity was observed” throughout.
